Measurements taken from patent US20230280350A1 (NORDIC BIOSCIENCE A S, published 2023).
No end group written: not given here. *: point of attachment. Biotin = O=C1N[C@H]2[C@H](CS[C@H]2CCCCC(=O)*)N1

Legend:
[1] = target: T1, Elongated peptide PMKTMKGPFGG; assay: competitive ELISA, peptide against coated Biotin-K-PMKTMKGPFG
T1 construct: Selection peptide with one extra glycine at the C-terminus
T1 peptide: PMKTMKGPFGG
Source text: (§1) The PRO-C16 amino acid sequence 1595′-[…] (SEQ ID NO: 1) located at the C-terminal was used to generate an antibody specific for the C-terminal of col-16. It was additionally used to design the selection peptide ([…]; SEQ ID NO: 1) (Table 1). The sequence was BLASTed for homology to other human proteins and species using the NPS@: network protein sequence analysis with the Uniprot/Swiss-Prot database (20). The amino acid sequence is unique to human col-16. A biotinylated peptide (Biotin-K-[…]) was used to coat the streptavidin-coated plates applied in the ELISA. An elongated peptide ([…]; SEQ ID NO: 2), a truncated peptide ([…]; SEQ ID NO: 3), a nonsense peptide ([…]; SEQ ID NO: 5) and a nonsense biotinylated peptide (Biotin-[…]; SEQ ID NO: 6) were included to test the specificity of the antibody.
(§2) The PRO-C16 competitive ELISA procedure was as follows; a 96-well streptavidin-coated microtiter plate was coated with 100 µl of biotinylated peptide (Biotin-K-[…]; SEQ ID NO: 4) dissolved in assay buffer (50 mM PBS-BTB, 4 g/l NaCl, pH 7.4) (final concentration of […]). The plate was incubated for 30 minutes at 20° C. with shaking (300 rpm) and then washed five times in washing buffer (20 mM TRIS, 50 mM NaCl, pH 7.2). A volume of 20 µl of sample/control/selection peptide ([…]; SEQ ID NO: 1) was added followed by immediately addition of 100 µl of monoclonal antibody diluted in assay buffer (final concentration of 62.5 ng/ml). The plate was incubated for 1 hour at 20° C. with shaking followed by five washes in washing buffer. Then, 100 µl of goat anti-mouse HRP-conjugated IgG antibody (Thermo Scientific, Waltham, MA, USA; cat. #31437) diluted in assay buffer (final concentration of 130 ng/ml) was added to each well. […] To stop the reaction of TMB, 100 µl of 1% H₂SO₄ was added and the plate was analyzed in a VersaMax ELISA microplate reader at 450 nm with 650 nm as reference. A standard curve was plotted using a 4-parametric mathematical fit model and data were analyzed using the Softmax Pro v. […]

[2] = target: T2, Truncated peptide PMKTMKGPF; assay: competitive ELISA, peptide against coated Biotin-K-…
T2 construct: Selection peptide without its C-terminal glycine
T2 peptide: PMKTMKGPF
Source text: as §1, §2

[3] = target: T3, Nonsense peptide VPKDLPPDTT (not fully specified); assay: as above
T3 construct: Control peptide
T3 peptide: VPKDLPPDTT
Source text: as §1, §2

[4] = target: T4, Nonsense biotinylated peptide Biotin-VPKDLPPDTT; assay: ELISA with the nonsense biotinylated peptide on streptavidin plates
T4 construct: Control coating peptide
T4 peptide: Biotin-VPKDLPPDTT

binding result [1]: no binding
binding result [2]: no binding
binding result [3]: no binding
binding result [4]: no binding
B1: monoclonal antibody of the PRO-C16 assay, raised against KLH-CGG-… (antibody, mouse IgG2b, kappa, V domains shown)
VH: EVQLQQSGAELVRSGASVKLSCTASGFNIKDYYIHWVKQRPEQGLEWIGWIDHDNGDTEYDPKFQGKATLTADTSSNTAYLQLSSLTSEDTAVYYCNAKGPRYGYEEDWFAYWGQGTLVTVST
VL: DVLMTQTPLSLPVSLGDQASISCRSSQSIVHNNGNTYLEWFLQKPGQSPKLLIYKVSNRFSGVPDRFSGSGSGTDFTLRISRVEADDLGVYYCFQGSHVPRTFGGGTKLEIKR
notes: also called PRO-C16 antibody; C16-C
